Side chains are listed from the residue outwards. Ends that are not written are not given here. maleimide = maleimide-activated rabbit IgG carrier, to which the peptide is conjugated through its cysteine; rabbit IgG = rabbit IgG carrier (maleimide-activated), conjugated to the peptide
Each binder was assayed against AD7C-NTP neural thread protein (purified recombinant AD7C-NTP) (assay: cell-based or functional assay).
Binder LHARLCLANFCGRNRV (also: conjugated through a cysteine to maleimide-activated rabbit IgG) [Harlil sequence NTP-1] has a reduction in tissue necrosis (rat injection sites, histopathology at 24 hours) greater than 95%.
C([maleimide-rabbit IgG])ARYRTGHHARLM [Harlil sequence NTP-3] was tested, and the reduction in tissue necrosis (rat injection sites, histopathology at 24 hours) was greater than 95%.
Work on DNTHHARLIL (also: conjugated to maleimide-activated rabbit IgG, mode not given here) [Harlil sequence NTP-7] yielded a reduction in tissue necrosis (rat injection sites, histopathology at 24 hours) greater than 95%.
